# Measurements taken from publication PMC7942993.
# Positions count from the first letter of the chain named.
# Experiments:
# Test in all cases: EMSA
# Settings in all cases: EMSA: 40 mM HEPES pH 7.9, 300 mM KCl, 10% glycerol, 8% Ficoll, 2 mM EDTA, 0.2 mM MgCl2, 1 mM DTT, 600 ug BSA, 30 ug poly(dI-dC), 30 ul, 20 min, room …
# [1] = biological target: T1, His-TRF1 T358D T358D (Homo sapiens) (UniProt P54274)
# T1 sequence: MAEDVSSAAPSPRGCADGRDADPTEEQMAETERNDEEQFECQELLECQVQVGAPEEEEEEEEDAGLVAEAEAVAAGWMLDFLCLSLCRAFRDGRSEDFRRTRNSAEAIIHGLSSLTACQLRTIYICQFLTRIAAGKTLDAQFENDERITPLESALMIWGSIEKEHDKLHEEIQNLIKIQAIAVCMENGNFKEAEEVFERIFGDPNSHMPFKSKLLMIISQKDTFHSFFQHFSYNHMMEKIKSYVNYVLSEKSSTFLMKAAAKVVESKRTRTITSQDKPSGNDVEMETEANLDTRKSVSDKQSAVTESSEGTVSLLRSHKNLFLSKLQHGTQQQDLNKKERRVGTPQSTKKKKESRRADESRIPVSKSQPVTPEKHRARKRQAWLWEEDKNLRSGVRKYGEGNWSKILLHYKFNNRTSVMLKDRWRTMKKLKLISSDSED
# [2] = biological target: T2, His-TRF1 T273D T273D (Homo sapiens) (UniProt P54274)
# T2 sequence: T1 sequence with T273D, D358T
# [3] = biological target: T3, His-TRF1 WT (Homo sapiens) (UniProt P54274)
# T3 sequence: T1 sequence with D358T
sequence,measurement,setting,value
GGGTTAGGGTTAGGGTTAGGGTTAGGGTTAGGGTTAGGGTTAGGGCCCCTC (double strand) [ds (TTAGGG)7 telomeric probe],binding signal,[1],> 1 fold of WT
same,binding signal,[2],> 1 fold of WT
same,binding signal (fold of WT (reference)),[3],1
